Experimental data published in US20200031947A1 (RINAT NEUROSCIENCE, published 2020).

B1: h3G7 R5 (antibody, V domains shown)
VH: QVQLVQSGAEVKKPGASVKVSCKASGYTFTGATMNWVRQAPGQGLEWMGLINPYTGGIRYNQKFKGRVTMTRDTSTSTVYMELSSLRSEDTAVYYCARIGGYYDSMDYWGQGTLVTVSS
VL: DIQMTQSPSSLSASVGDRVTITCRASESVEPRGINFLNWYQQKPGKAPKLLIYAASQASKGVPSRFSGSGSGTDFTLTISSLQPEDFATYYCQQALELPWTFGGGTKVEIK
notes: Only variable domains are tied to this name
B2: h3G7 AM (antibody, V domains shown)
VH: QVQLVQSGAEVKKPGASVKVSCKASGYTFTGATMNWVRQAPGQGLEWMGLINPYNGGIRYNQKFKGRVTMTRDTSTSTVYMELSSLRSEDTAVYYCARIGGYYDSMDYWGQGTLVTVSS
VL: DIQMTQSPSSLSASVGDRVTITCRASESVDPRGINFLNWYQQKPGKAPKLLIYAASNQAKGVPSRFSGSGSGTDFTLTISSLQPEDFATYYCQQALELPWTFGGGTKVEIK
notes: Whole IgG captured on an anti-human Fc chip
B3: h3G7 LF (antibody, V domains shown)
VH: QVQLVQSGAEVKKPGASVKVSCKASGYTFTGATMNWVRQAPGQGLEWMGLINPYTGGIRYNQKFKGRVTMTRDTSTSTVYMELSSLRSEDTAVYYCARIGGYYDTMDYWGQGTLVTVSS
VL: DIQMTQSPSSLSASVGDRVTITCRASESVEPRGINFLNWYQQKPGKAPKLLIYAASQASKGVPSRFSGSGSGTDFTLTISSLQPEDFATYYCQQALELPWTFGGGTKVEIK
notes: as for B2
B4: h3G7 N9 (antibody, IgG1, V domains shown)
VH: QVQLVQSGAEVKKPGASVKVSCKASGYTFTGYTVSWVRQAPGQGLEWMGLINPYTGGIRYNQKFKGRVTMTRDTSTSTVYMELSSLRSEDTAVYYCARIGGYYDSMDYWGQGTLVTVSS
VL: DIQMTQSPSSLSASVGDRVTITCRASESVQPRGINFLNWYQQKPGKAPKLLIYAASNPSKGVPSRFSGSGSGTDFTLTISSLQPEDFATYYCQQALELPWTFGGGTKVEIK
B5: h10H2 N14 (antibody, IgG1, V domains shown)
VH: QVQLVQSGAEVKKPGSSVKVSCKASGGTFSRYWIEWVRQAPGQGLEWMGEILPGSGVTFENEKFKGRVTITADESTSTAYMELSSLRSEDTAVYYCARKGRYYAMDYWGQGTSVTVSS
VL: EIVLTQSPGTLSLSPGERATLSCRASQSIGTSIHWYQQKPGQAPRLLIYYASESVSGIPDRFSGSGSGTDFTLTISRLEPEDFAVYYCQQTYSWPATFGQGTKVEIK
notes: also called R14; h10H2 R14
B6: h10H2 HU (antibody, V domains shown)
VH: QVQLVQSGAEVKKPGSSVKVSCKASGGTFSRYWIEWVRQAPGQGLEWMGEILPGSGVTNYNEKFKGRVTITADESTSTAYMELSSLRSEDTAVYYCARKGTYYAMDYWGQGTSVTVSS
VL: EIVLTQSPGTLSLSPGERATLSCRASQSIGTSIHWYQQKPGQAPRLLIYYASESVSGIPDRFSGSGSGTDFTLTISRLEPEDFAVYYCQQTYSWPATFGQGTKVEIK
notes: as for B2
B7: h10H2 AM (antibody, V domains shown)
VH: QVQLVQSGAEVKKPGSSVKVSCKASGGTFSRYWIEWVRQAPGQGLEWMGEILPGSGVTFENEKFKGRVTITADESTSTAYMELSSLRSEDTAVYYCARKGRYYAMDYWGQGTLVTVSS
VL: EIVLTQSPGTLSLSPGERATLSCRASQSIGTSIHWYQQKPGQAPRLLIYYASESVSGIPDRFSGSGSGTDFTLTISRLEPEDFAVYYCQQTYSWPATFGQGTKVEIK
notes: as for B2
B8: anti-mGITR r18H12 mIgG2a (antibody, V domains shown)
VH: EVQLVESDGVLVQPGKSLTLSCAASGFTFSDYYMAWVRQAPTKGLEWVATISYDDITTFYRDSVKGRFTISRDTAKSTLYLQMDSLRSEDTATYYCTRGLQWPYVMDAWGQGALVTVSS
VL: DIVMTQSPSSLAVSAGETVTINCKSSQSLLYSGNQKSYLAWYQQKPGQSPKLLIYWASPRQSGVPDRFIGSGSGTDFTLTISSVQAEDMATYYCQQYYDAPPTFGGGTKLEIK
B9: anti-mGITR r21B6 mIgG2a (antibody, V domains shown)
VH: EAQLVESGGGLVQPGRSLKLSCEASGFTFTKYGMAWVRQAPTKGLEWVASIINSGGNTYYRDSVKGRFTISRDNAKSTLYLQMDSLRSEDTATYYCATDYYDGSYHSDVVDAWGQGVLVTVSS
VL: EIVLTQSPTTMAASPGEKVTITCRASSSLNYMHWFQQKSGTSPKPWIYDTSELASGVPDRFSGSGSGTSYSLTISSMEAEDAATYYCLQKNGYPLTFGSGTKLEIK
notes: also called m21B6 IgG2a

How the values were obtained:
human GITR on cells [1] = biological target: T1, human GITR on cells (human, UniProt Q9Y5U5 26-162); experiment: cell-based or functional assay
T1 sequence: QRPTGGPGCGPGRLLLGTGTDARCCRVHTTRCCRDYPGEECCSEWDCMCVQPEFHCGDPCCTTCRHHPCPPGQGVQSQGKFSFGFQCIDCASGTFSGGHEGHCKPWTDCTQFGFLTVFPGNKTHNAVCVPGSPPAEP

[2] = biological target: T2, cynomolgus GITR (cyGITR), soluble analyte (cynomolgus); experiment: SPR (Biacore T200), 37 C; antibody captured on anti-human Fc chip, GITR as analyte; 1:1 Langmuir fit
T2 construct: Soluble analyte in SPR; construct not described; also called cGITR
Experimental: (§1) The sensor chip preparation was performed at 25° C. with a running buffer of 10 mM HEPES, 150 mM NaCl, 0.05% (v/v) Tween-20, pH 7.4. An anti-human Fc sensor chip was made by activating all flow cells of a Biacore CM4 sensor chip with a 1:1 (v/v) mixture of 400 mM EDC and 100 mM NHS for 7 minutes, at a flow rate of 10 μL/min. An anti-human Fc reagent (Goat Anti-Human IgG Fc, SouthernBiotech Catalog #2081-01) was diluted to […] in 10 mM Sodium Acetate pH 4.5 and injected on all flow cells for 7 minutes at 20 μL/min. All flow cells were blocked with 100 mM ethylenediamine in 150 mM Borate buffer pH 8.5 for 7 minutes at 10 μL/min.
(§2) Antibodies were captured from undiluted supernatants onto downstream flow cells (flow cells 2, 3 and 4) at a flow rate of 10 μL/min for 2 minutes. Different antibodies were captured on each flow cell. Flow cell 1 was used as a reference surface. Following capture of antibodies, analyte (buffer, hGITR, or cyGITR) was injected at 30 μL/min on all flow cells for two minutes. After the analyte injection, dissociation was monitored for 10 minutes followed by regeneration of all flow cells with three 1-minute injections of 75 mM Phosphoric Acid. For each captured antibody, the following analyte injections were performed: buffer, 20 nM hGITR, 200 nM hGITR, 20 nM cyGITR and 200 nM cyGITR. Buffer cycles were collected for each captured antibody for double-referencing purposes (double-referencing as described in Myszka, J. Mol. Recognit. 12:279-284 (1999). The double-referenced sensorgrams were fit globally to a simple 1:1 Langmuir with mass transport binding model.

[3] = biological target: T3, human GITR (hGITR), soluble analyte (human, UniProt Q9Y5U5 26-162); experiment: as above
T3 sequence: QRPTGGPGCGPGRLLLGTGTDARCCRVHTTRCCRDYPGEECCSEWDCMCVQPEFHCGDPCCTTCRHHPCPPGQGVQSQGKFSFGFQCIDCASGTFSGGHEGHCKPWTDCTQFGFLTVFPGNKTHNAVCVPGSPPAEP
Experimental: as §1, §2

human GITR on cells [4] = biological target: T1, human GITR on cells; experiment: flow cytometry on in vitro expanded human Tregs; unconjugated antibody detected with A647 goat anti-human Fc gamma F(ab')2; MFI on antibody positive cells
Experimental: Cultured Tregs would be tracked throughout expansion to check purity. Cells were re-suspended in FACS buffer, PBS with 2% FBS for analysis using fluorophore conjugated CD markers. FACS antibodies against GITR and other CD lymphocyte markers were prepared in FACS buffer at the appropriate concentration and incubated for 30 minutes at RT. Treg purity staining utilizes intracellular targets and were processed with Foxp3 fix/perm kit (Affymetrix/eBiosciense, San Diego, Calif.). Stained cells were resuspended in fresh FACS buffer and analyzed on a FACS analyzer LSRII or Fortessa (BD Biosciences, San Jose, Calif.). To generate kinetic and binding data unconjugated antibody was titrated from 10-0.001 ug/mL (1:10 in serial dilutions, triplicate wells per concentration) and incubated at 4c for 60 minutes with 1*10e5 expanded day 12 Tregs per well. Unbound antibody was washed from cells and an A647 labeled Fc gamma (Fcγ) Fragment Specific goat-anti-human affiniPure F(ab′)₂ IgG was used to detect bound antibody (Jackson ImmunoResearch Laboratories Inc, West Grove, Pa.). Analysis of stained cells completed with FlowJo (Treestar). Geometric mean of APC was used to calculate EC50 by log transforming the molar concentration and generating a non-linear fit curve in GraphPad Prism.

[5] = biological target: T4, mouse GITR (mGITR), soluble analyte (mouse, UniProt O35714 20-153, limits assumed); experiment: SPR (Biacore T200), 37 C; purified antibody captured on anti-mouse Ig chip, mGITR as analyte (300 nM top, 3-fold series); 1:1 Langmuir fit
T4 construct: Soluble analyte in SPR; construct not described
T4 sequence (looked up): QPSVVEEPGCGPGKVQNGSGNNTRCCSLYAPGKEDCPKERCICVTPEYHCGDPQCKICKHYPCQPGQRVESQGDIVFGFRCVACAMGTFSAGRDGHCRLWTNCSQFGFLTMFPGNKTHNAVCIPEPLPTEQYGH
Experimental: The sensor chip preparation was performed at 25° C. with a running buffer of 10 mM HEPES, 150 mM NaCl, 0.05% (v/v) Tween-20, pH 7.4. An anti-mouse Fc sensor chip was made by activating all flow cells of a Biacore CM4 sensor chip with a 1:1 (v/v) mixture of 400 mM EDC and 100 mM NHS for 7 minutes, at a flow rate of 10 μL/min. An anti-mouse immunoglobulin reagent (Rabbit anti-mouse immunoglobulin antibodies from Biacore Mouse Antibody Capture Kit, GE Lifesciences Catalog # BR-1008-38) was diluted to […] in 10 mM Sodium Acetate pH 5.0 and injected on all flow cells for 7 minutes at 20 μL/min. All flow cells were blocked with 100 mM ethylenediamine in 150 mM Borate buffer pH 8.5 for 7 minutes at 10 μL/min.
The experiments were performed at 37° C. using a running buffer of 10 mM HEPES, 150 mM NaCl, 0.05% (v/v) Tween-20, pH 7.4, 1 mg/mL BSA.
Purified antibodies were captured at […] onto downstream flow cells (flow cells 2, 3 and 4) at a flow rate of 10 μL/min for 2 minutes. Different antibodies were captured on each flow cell. Flow cell 1 was used as a reference surface. Following capture of antibodies, analyte (buffer, or mGITR) was injected at 30 μL/min on all flow cells for two minutes. After the analyte injection, dissociation was monitored for 10 minutes followed by regeneration of all flow cells with one 3-minute injection of 10 mM Glycine pH 1.7. A 5-membered dilution series of mGITR was analyzed using this method, where the top concentration was 300 nM and the dilution factor was 3-fold. The 33 nM dilution was run in duplicate. Buffer cycles were collected for each captured antibody for double-referencing purposes (double-referencing as described in Myszka, J. Mol. Recognit. 12:279-284 (1999). The double-referenced sensorgrams were fit globally to a simple 1:1 Langmuir with mass transport binding model.

Row | Binder | EC50 of macrophage-mediated cytotoxicity (ADCP) of a GITR+ T cell line (human GITR on cells [1]) | Kd [2] | koff [2] | kon [2] | t1/2 [2] | Kd [3] | koff [3] | kon [3] | t1/2 [3] | EC50 (read off the curve) (human GITR on cells [4]) | Kd [5] | koff [5] | kon [5] | t1/2 [5]
1 | B1 | 0.92 nM | 6.4 nM | 0.0038 s⁻¹ | 600000 M⁻¹ s⁻¹ | 3 min | 5 nM | 0.0045 s⁻¹ | 900000 M⁻¹ s⁻¹ | 2.6 min | – | – | – | – | –
2 | B2 | – | 13 nM | 0.0088 s⁻¹ | 670000 M⁻¹ s⁻¹ | 1.3 min | 17 nM | 0.019 s⁻¹ | 1.1e+06 M⁻¹ s⁻¹ | 0.61 min | – | – | – | – | –
3 | B3 | – | 69 nM | 0.023 s⁻¹ | 330000 M⁻¹ s⁻¹ | 0.51 min | 22 nM | 0.015 s⁻¹ | 690000 M⁻¹ s⁻¹ | 0.76 min | – | – | – | – | –
4 | B4 | 0.692 nM | – | – | – | – | – | – | – | – | – | – | – | – | –
5 | B5 | 2.01 nM | – | – | – | – | – | – | – | – | ~0.03 µg/mL | – | – | – | –
6 | B6 | – | > 100 nM | – | – | – | > 100 nM | 0.0563 s⁻¹ | – | 0.21 min | – | – | – | – | –
7 | B7 | – | > 100 nM | 0.011 s⁻¹ | – | 1.1 min | 6.6 nM | 0.00154 s⁻¹ | 233000 M⁻¹ s⁻¹ | 7.5 min | – | – | – | – | –
8 | B8 | – | – | – | – | – | – | – | – | – | – | 2.2 nM | 0.00049 s⁻¹ | 220000 M⁻¹ s⁻¹ | 24 min
9 | B9 | – | – | – | – | – | – | – | – | – | – | 21 nM | 0.0065 s⁻¹ | 310000 M⁻¹ s⁻¹ | 1.8 min
